The record followed here is patent publication US20250250357A1 (NANJING ZAIMING PHARMACEUTICAL, published 2025).

Residue numbers refer to the chain shown, from its start.

The labels stand for the following.
T1: monkey MSLN full-length protein (NCBI: XP_028696439.1) expressed on HEK293T-monkey MSLN cells (monkey)
T1 construct: Whole encoded precursor
T1 chain: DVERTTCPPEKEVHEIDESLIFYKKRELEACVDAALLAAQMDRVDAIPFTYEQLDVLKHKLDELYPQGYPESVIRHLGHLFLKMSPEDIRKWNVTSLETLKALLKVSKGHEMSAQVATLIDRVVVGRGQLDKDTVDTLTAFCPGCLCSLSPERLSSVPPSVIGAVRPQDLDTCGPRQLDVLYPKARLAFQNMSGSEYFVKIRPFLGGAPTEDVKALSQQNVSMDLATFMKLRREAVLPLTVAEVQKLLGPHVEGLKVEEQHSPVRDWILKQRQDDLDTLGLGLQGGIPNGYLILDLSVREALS

B1: Tab106 (YP218, hIgG1) (antibody, V domains shown)
VH: QQQLEESGGGLVKPEGSLTLTCKASGFDLGFYFYACWVRQAPGKGLEWIACIYTAGSGSTYYASWAKGRFTISKASSTTVTLQMTSLAAADTATYFCARSTANTRSTYYLNLWGPGTLVTVSS
VL: DVVMTQTPASVSEPVGGTVTIKCQASQRISSYLSWYQQKPGQRPKLLIFGASTLASGVPSRFKGSGSGTEYTLTISDLECADAATYYCQSYAYFDSNNWHAFGGGTEVVVRT
notes: Control antibody; also called YP218 human IgG1 antibody
B2: S009-F3.74.20 (antibody, human IgG1, kappa, V domains shown)
VH: RVQLQQSGAELVRPGASVTLSCKASGYTFTDSEMHWVKQTPVHGLEWIGAIDPEIDGTAYNQNFRDKAILTADKSSSTAYMELRSLTSEDSAVYYCTTYFGSGYGYFDVWGTGTTVTVSS
VL: DVVMTQTPLSLSVSLGDQASISCRSSQSLVYSNGNTYLHWFLQKPGQSPKLLIYKVSNRFSGVPDRFSGSGSGTDFTLKINRVEAEDLGVYFCSQSTHIPFTFGAGTKLELKR
notes: human-murine chimeric antibody, human IgG1/kappa constant regions
B3: S009-F3.38.10 (antibody, human IgG1, kappa, V domains shown)
VH: EVQLQQSGPVLVKPGASVKMSCEASGYIFTDYYMNWVKKSHGKSLEWIGVINPKNGVISHNQKFKGKATLTVDKSSNTAYMELSSLTSEDSAVYYCANYGSRFYAMDYWGQGTSVTVSS
VL: DVVMTQTPLSLPVSLGDQASISCRSSQSLIHSDGNTYLQWYLQKSGQSPKLLIYKVSNRFSGVPDRFSGSGSGTDFTLKISRVETEDLGVYFCSQTTHVPFTFGSGTKLEIKR
notes: as for B2
B4: S009-F3.80.22 (antibody, human IgG1, kappa, V domains shown)
VH: QVQLQQSGAELVRPGASVTLSCKASGYTFTDYEIHWVKQTPVHGLEWIGAFDPEIGGSAYNQKFKDRATLTADKSSSTAYMELHSLTAEDSAVYYCTDYYGSSSGYFDVWGTGTTVTVSS
VL: B3 VL with I30E, S32N, D33N, Q39H, Y41F, Q43H, S45P, T85A, T96S
notes: as for B2
B5: S009-F3.23.1 (antibody, human IgG1, kappa, V domains shown)
VH: QVQLQQSGADLVRPGASVTLSCKASGYTFTDYEMHWVKQTPVHGLEWIGAIDPETGDTVYNQNFKGKAILTADKSSSTAYMELRSLTSEDSAVYYCTRYGYDWGWGQGTTLTVSS
VL: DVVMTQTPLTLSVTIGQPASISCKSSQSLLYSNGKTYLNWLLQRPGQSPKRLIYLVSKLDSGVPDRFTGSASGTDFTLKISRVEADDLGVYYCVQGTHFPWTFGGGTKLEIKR
notes: as for B2
B6: S009-F3-63.5 (antibody, human IgG1, kappa, V domains shown)
VH: QVQLQQSGAELVRPGASVTLSCKASGYTFTDYEMHWVKQTPVHGLEWIGGIDPETGDTAYNQQFKGKAILTADRSSSTAYMELRSLTSEDSAVYYCTNYASSREDYWGQGTTLTVSS
VL: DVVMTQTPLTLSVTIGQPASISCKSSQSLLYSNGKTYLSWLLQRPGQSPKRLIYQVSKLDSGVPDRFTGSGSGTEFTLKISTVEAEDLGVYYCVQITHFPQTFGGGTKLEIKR
notes: as for B2
B7: S009-F3.51.8 (antibody, human IgG1, kappa, V domains shown)
VH: QVQLQQSGAELVRPGASVTLSCKASGYTFTDYEMHWVKQTPVHGLEWIGGFDPETGGTAHNQKFKGKAILTADKSSSTAYMELRSLTSEDSAVYYCSNYGSIWGDCWGQGTSVTVSS
VL: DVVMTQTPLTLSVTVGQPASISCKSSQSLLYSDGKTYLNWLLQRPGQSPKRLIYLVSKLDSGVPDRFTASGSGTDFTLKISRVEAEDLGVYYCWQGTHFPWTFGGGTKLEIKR
notes: as for B2
B8: S009-F3.16.1 (antibody, human IgG1, kappa, V domains shown)
VH: EVKFEESGGGLVQPGGSMKLSCVASGFTFSNYWMNWVRQSPEKGLEWVAQIRLKSDNYATHYAESVKGRFSISRDDSKSSVYLQMNNLRAEDTGIYYCSVGTGGYWGQGTTLTVSS
VL: DIVLTQSPASLALSPGKRATISCRASESVSIIGTDVIHWFQQKPGQPPKLLIYHASNLETGVPARFSGSGSRTDFTLTIDPVEEDDVAIYYCLQSRKIPWTFGGGTKLEIKR
notes: as for B2
B9: S009-F3.45.21 (antibody, human IgG1, kappa, V domains shown)
VH: DVQLQESGPGLVKPSQSLSLTCSVTGDSITSGYYWNWIRQFPGNKLEWMGFIRFDGTNNYNPSLKNRISITRDTSKNQFFLKLNSVTTEDTATYYCAREGSYAPAWFAYWGQGTLVTVSA
VL: QIVLTQSPAIMSASPGEKVTMTCSASSSLSYMYWYQQKPGSSPRLLIYDTSNLASGVPVRFSGSGSGTSYSLTISRMEAEDAATYYCQQWSSYPPTFGGGTKLEIKR
notes: as for B2

T3 sequence (Q13421 other isoform, or with tags, fused parts or gaps): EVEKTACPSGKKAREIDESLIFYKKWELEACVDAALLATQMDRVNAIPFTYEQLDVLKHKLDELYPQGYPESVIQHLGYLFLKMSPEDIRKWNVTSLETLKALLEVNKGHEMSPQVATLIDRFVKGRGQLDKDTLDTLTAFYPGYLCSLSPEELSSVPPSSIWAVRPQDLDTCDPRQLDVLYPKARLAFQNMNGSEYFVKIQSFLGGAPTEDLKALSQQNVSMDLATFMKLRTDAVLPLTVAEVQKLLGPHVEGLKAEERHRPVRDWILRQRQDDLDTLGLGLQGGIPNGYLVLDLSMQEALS
T4 sequence (Q13421 other isoform, or with tags, fused parts or gaps limits assumed): as the sequence (Q13421 other isoform, or with tags, fused parts or gaps) above, with R14P counted along it

For the first test, the target named is T2, human MSLN-R3 protein (Met487-Ser606 of NCBI AAH09272.1) expressed on HEK293T-hMSLN-R3 cells (human, UniProt Q13421 487-606).
T2 construct: also called Region3
T2 sequence (Q13421 495-614): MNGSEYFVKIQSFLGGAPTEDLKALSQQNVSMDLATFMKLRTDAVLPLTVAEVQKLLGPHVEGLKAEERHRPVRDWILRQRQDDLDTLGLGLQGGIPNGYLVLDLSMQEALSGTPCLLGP
The test is described as follows: FACS on HEK293T-hMSLN-R3 cells.
For the molecule B1, the EC50 (as a rule, the concentration that produces a half-maximal response) was determined as 0.65 nM and the “Maximum mean fluorescence intensity” value was 7460.

The target of the next test is T1, monkey MSLN full-length protein (NCBI: …). The test is described as follows: FACS on HEK293T-monkey MSLN cells.
Method: (§1) The desired cells were expanded to the logarithmic growth phase in a T-75 cell culture flask. […] After the cells from the previous step were subjected to cell counting, the cell pellet was resuspended to 2×10⁶ cells/mL in a blocking buffer of [PBS+2% (w/w) BSA] and added into a 96-well FACS reaction plate at 50 μL/well. A chimeric antibody (a sample to be tested) was added at 50 μL/well, and the plate was incubated on ice for 2 h. […] After the plate was centrifuged and washed 5 times with a PBST buffer, assay and analysis were performed by FACS (FACS CantoII, purchased from BD). Data analysis was performed by software (Flowjo) to obtain the mean fluorescence intensity (MFI) of the cells.
Turning to B2, the “Maximum mean fluorescence intensity” value came to 188.
For B3, the response was half-maximal at 4.63 nM (EC50) and the “Maximum mean fluorescence intensity” value came out at 22300.
In the case of B4, the “Maximum mean fluorescence intensity” value was found to be 57 and the binding result is reported as “no binding”.
In the case of B5, the “Maximum mean fluorescence intensity” value was determined as 88 and the binding result is listed as “no binding”.
Taken in the same sequence, the figures for B6 were 105 and “no binding”.
Taken in the same sequence, the figures for B7 were 88 and “no binding”.
As for B8, the EC50 came to 1.4 nM and the “Maximum mean fluorescence intensity” value came to 24800.
With B9, the EC50 came out at 0.56 nM and the “Maximum mean fluorescence intensity” value was determined as 41100.

A further test has as its target T2, human MSLN-R3 protein (Met487-Ser606 of …). The test is described as follows: FACS on HEK293T-hMSLN-R3 cells. The source holds these as a separate data set.
Method: as §1
As to B2, it took 0.62 nM to reach a half-maximal effect (EC50) and the “Maximum mean fluorescence intensity” value is 5070.
B3: the EC50 amounted to 3.41 nM and the “Maximum mean fluorescence intensity” value stood at 6770.
Taken in the same sequence, the figures for B4 were 0.99 nM and 4800.
As for B5, the EC50 came out at 0.84 nM and the “Maximum mean fluorescence intensity” value is 4240.
Taken in the same sequence, the figures for B6 were 1.18 nM and 8270.
As for B7, the response was half-maximal at 0.75 nM (EC50) and the “Maximum mean fluorescence intensity” value was determined as 4470.
With B8, the midpoint of the response, the EC50, lay at 0.43 nM and the “Maximum mean fluorescence intensity” value was determined as 8060.
Turning to B9, the “Maximum mean fluorescence intensity” value amounted to 81 and the binding result is on record as “no binding”.

The next test has as its target T3, human MSLN protein endogenously expressed on OVCAR3 tumor cells (human, UniProt Q13421 296-598).
T3 construct: whole, on cells; Endogenous target on OVCAR3 cells; kept apart from the recombinant full-length construct; also called mesothelin
The test is described as follows: FACS on OVCAR3 cells.
Method: as §1
On to B2, for which the “Maximum mean fluorescence intensity” value was 613.
Consider B3, for which the “Maximum mean fluorescence intensity” value was 2620.
On the same count and under the same terms, for B4 the value was 263; for B5, 288.
B6: the “Maximum mean fluorescence intensity” value stood at 227.
For the molecule B7, the “Maximum mean fluorescence intensity” value is 337.
With B8, the EC50 was 1.61 nM and the “Maximum mean fluorescence intensity” value was 4190.
Consider B9, for which the EC50 amounted to 5.61 nM and the “Maximum mean fluorescence intensity” value worked out at 9710.

The target of the next test is T2, human MSLN-R3 protein (Met487-Ser606 of …). The test is described as follows: FACS on HEK293T-hMSLN-R3 cells. The source holds these as a separate data set.
Method: as §1
Take B1: the response was half-maximal at 0.28 nM (EC50) and the “Maximum mean fluorescence intensity” value stood at 25400.

The next test has as its target T4, human MSLN full-length protein (NCBI: AAH09272.1) expressed on HEK293T-hMSLN-B8 cells (human, UniProt Q13421 296-598).
T4 construct: Whole encoded precursor
The test is described as follows: FACS on HEK293T-hMSLN-B8 cells.
Method: as §1
Turning to B2, a half-maximal effect (EC50) was put at 8.68 nM and the “Maximum mean fluorescence intensity” value stood at 36400.
Taken in the same sequence, the figures for B3 were 6.84 nM and 80600.
Taken in the same sequence, the figures for B4 were 36.4 nM and 24700.
As to B5, a half-maximal response (EC50) required 33.7 nM and the “Maximum mean fluorescence intensity” value came to 26400.
B6: the “Maximum mean fluorescence intensity” value was found to be 35400.
As for B7, the midpoint of the response, the EC50, lay at 21.8 nM and the “Maximum mean fluorescence intensity” value stood at 27900.
Taken in the same sequence, the figures for B8 were 1.46 nM and 89800.
Taken in the same sequence, the figures for B9 were 1.41 nM and 97600.
